Laboratory results as given in patent publication US20060286609A1 (BIOCHECK, published 2006).

Columns and labels:
[1] = molecular target: Human Id1: Histidine (human) (UniProt P41134); test: sandwich ELISA, 5-3-coated wells, human Id1:His 0.5 ng/ml, detected with rabbit polyclonal B-5133-HRP
[2] = molecular target: Human Id1: Histidine (human) (UniProt P41134); test: ELISA, coated antigen; reference human Id1
[3] = molecular target: Human Id1: Histidine (human) (UniProt P41134); test: sandwich ELISA, 5-3-coated wells, human Id1:His 1.0 ng/ml, detected with rabbit polyclonal B-5133-HRP
[4] = molecular target: Human Id1: Histidine (human) (UniProt P41134); test: ELISA, coated antigen, Ab 0.10 ug/ml
Human Id2: Histidine [5] = molecular target: T1, Human Id2: Histidine (human, UniProt Q02363 1-134, limits assumed); test: ELISA, coated antigen, Ab 0.25 ug/ml
T1 construct: E. coli fusion protein (vector pGW07); also called h-Id2: His; not shown: His-tag
T1 sequence (looked up): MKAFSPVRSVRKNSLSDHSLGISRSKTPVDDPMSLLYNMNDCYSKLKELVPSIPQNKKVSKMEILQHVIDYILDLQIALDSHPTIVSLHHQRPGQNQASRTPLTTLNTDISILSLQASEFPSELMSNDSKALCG
Method: (§1) Incubate plates at 2-8° C. overnight (16-24 hours). [0145] 11. Shake off the BSA solution. [0146] 12. Dispense 250 μL of 2.5% sucrose solution into each well. [0147] 13. Incubate plates at 2-8° C. for 4 hours. [0148] 14. Shake off sucrose solution. [0149] 15. Dry in vacuum at room temperature overnight. Screening Method [0150] 1. Dispense 100 μL of antibody diluent, diluted rabbit polyclonal anti-Id1 into appropriate wells. […] 2. Incubate at room temperature with mechanical shaking at 750 rpm for 90 minutes. [0152] 3. Remove the incubation mixture by flicking plate content into an appropriate waste container, followed by rinsing the wells 5 times with distilled water. […] 4. Strike the wells sharply onto absorbent paper or paper towels to remove all residual water droplets. [0154] 5. Dispense 100 μL of Goat Anti-Rabbit IgG-HRP Conjugate Reagent into each well. Gently mix for 5 seconds. [0155] 6. Incubate at room temperature with mechanical shaking at 750 rpm for 90 minutes. […] 7. Repeat procedures 3 and 4. [0157] 8. Dispense 100 μL of TMB Reagent into each well. Gently mix for 5 seconds. [0158] 9. Incubate at room temperature with mechanical shaking at 750 rpm for 20 minutes. [0159] 10. Add 100 μL of Stop Solution (1N HCl) into each well. [0160] 11. Gently mix for 10 seconds to ensure a complete mixing. […] 12. Read optical density (absorbance) at 450 nm. Results from this assay were used to select the rabbit sera with the highest antibodies titer that selectively reacts with mouse Id1 or human Id1 or both.
(§2) A comparison was carried out between the reactivity of the rabbit monoclonal anti-mouse Id1, clone #BCH-1/#37-2, of this invention and the mouse monoclonal anti-mouse/human Id1 from BD Pharmingen with the following antigens prepared in Example 5: mouse Id1:His, human Id1:His, human Id2:His, human Id3:His, and GST. These antigens and protein were used to coat the wells.
(§3) Materials and methods were those described in Example 9 except (a) Pharmingen's mouse monoclonal anti-mouse Id1 was used in addition to the rabbit monoclonal anti-mouse Id1 (Example 10), and (b) goat anti-mouse IgG-HRP conjugate was used to process the wells treated with the Pharmingen monoclonal antibody and polyclonal goat anti-rabbit IgG-HRP conjugate was used to process wells treated with rabbit monoclonal anti-mouse Id1.

Mouse Id1: Histidine [6] = molecular target: T2, Mouse Id1: Histidine (mouse, UniProt P20067-2 1-148); test: ELISA, coated antigen, Ab 0.25 ug/ml
T2 construct: E. coli fusion protein (vector pGW07); also called m-Id1-His; not shown: His-tag
T2 sequence: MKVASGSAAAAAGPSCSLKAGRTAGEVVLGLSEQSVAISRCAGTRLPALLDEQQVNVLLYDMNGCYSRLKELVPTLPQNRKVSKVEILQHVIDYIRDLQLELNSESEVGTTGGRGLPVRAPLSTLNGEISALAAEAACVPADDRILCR
Method: as §1, §2, §3

Human Id3: Histidine [7] = molecular target: T3, Human Id3: Histidine (human, UniProt Q02535 1-119, limits assumed); test: ELISA, coated antigen, Ab 0.25 ug/ml
T3 construct: E. coli fusion protein (vector pGW07); also called h-Id3: His; not shown: His-tag
T3 sequence (looked up): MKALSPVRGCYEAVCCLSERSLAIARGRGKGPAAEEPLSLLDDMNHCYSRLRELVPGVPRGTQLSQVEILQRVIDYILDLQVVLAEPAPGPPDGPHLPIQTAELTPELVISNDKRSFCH
Method: as §1, §2, §3

[8] = molecular target: T4, glutathione S-transferase (GST) (UniProt P08515 1-218 = GST); test: ELISA, coated antigen, Ab 0.25 ug/ml
T4 construct: Coated on wells as control for the fusion partner of the immunogen
T4 sequence (P08515 whole entry, the tested form may be a part): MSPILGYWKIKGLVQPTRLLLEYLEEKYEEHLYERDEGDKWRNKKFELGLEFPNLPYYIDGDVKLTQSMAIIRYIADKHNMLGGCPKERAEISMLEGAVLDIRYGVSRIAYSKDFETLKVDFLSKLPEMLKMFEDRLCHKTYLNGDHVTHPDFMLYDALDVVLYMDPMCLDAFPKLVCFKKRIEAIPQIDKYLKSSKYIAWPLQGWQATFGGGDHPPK
Method: as §1, §2, §3

Human Id2: Histidine [9] = molecular target: T1, Human Id2: Histidine; test: ELISA, coated antigen, Ab 10.0 ug/ml
Method: as §1, §2, §3

Mouse Id1: Histidine [10] = molecular target: T2, Mouse Id1: Histidine; test: ELISA, coated antigen, Ab 10.0 ug/ml
Method: as §1, §2, §3

Human Id3: Histidine [11] = molecular target: T3, Human Id3: Histidine; test: ELISA, coated antigen, Ab 10.0 ug/ml
Method: as §1, §2, §3

[12] = molecular target: Human Id1: Histidine (human) (UniProt P41134); test: ELISA, coated antigen, Ab 10.0 ug/ml
Human Id2: Histidine [13] = molecular target: T1, Human Id2: Histidine; test: ELISA, coated antigen, Ab 1.00 ug/ml
Method: as §1, §2, §3

Mouse Id1: Histidine [14] = molecular target: T2, Mouse Id1: Histidine; test: ELISA, coated antigen, Ab 1.00 ug/ml
Method: as §1, §2, §3

Human Id3: Histidine [15] = molecular target: T3, Human Id3: Histidine; test: ELISA, coated antigen, Ab 1.00 ug/ml
Method: as §1, §2, §3

[16] = molecular target: Human Id1: Histidine (human) (UniProt P41134); test: ELISA, coated antigen; relative to mouse Id1
[17] = molecular target: Human Id1: Histidine (human) (UniProt P41134); test: ELISA, coated antigen, Ab 5.00 ug/ml
[18] = molecular target: Human Id1: Histidine (human) (UniProt P41134); test: ELISA, coated antigen, Ab 1.00 ug/ml

Chain of Human Id1: Histidine (human) (P41134 whole entry): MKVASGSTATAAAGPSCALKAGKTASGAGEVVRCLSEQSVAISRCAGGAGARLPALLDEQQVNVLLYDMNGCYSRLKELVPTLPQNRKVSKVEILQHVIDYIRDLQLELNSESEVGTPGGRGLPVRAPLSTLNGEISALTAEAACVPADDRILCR

Question: How did the A450 [1] turn out when “rabbit monoclonal anti-human Id1, clone #BCH-2/#5-3 (antibody)” was run?
Answer: 0.085 A450

Question: And the Cross-reactivity (%) [2]?
Answer: 100%

Question: And the A450 [3]?
Answer: 0.124 A450

B1: rabbit monoclonal anti-mouse Id1, clone #BCH-1/#37-2 (antibody, V domains shown)
VH: QSVEESGGRLVTPGTPLTLTCKVSGFDINSYAMDWFRQAPGKGLEWIGMMSTRGNTYYTSWAKGRFTISKTSSTTVDLKMTSLTTEDTATYFCARGGLWGPGTLVTVSS
VL: RVLTQTASPVSAAVGGTVTINCQASQSVYNGNRLGWYQLKPGQSPKELIHDASTLASGVPSRFRGSGSGTQFTLTINDVQCDDAATYYCVGSYACSTGDCNVFGGGTEVVVK
notes: Rabbit IgG from hybridoma, Protein G purified; also called m Id1 MoAb 37-2; Rabbit Monoclonal Anti-Mouse Id1 (#37-2)
Question: For B1, which A450 [4] is on record?
Answer: 0.061 A450

Question: What about the A450 (Human Id2: Histidine [5]) of the same molecule?
Answer: 0.049 A450

Question: What about the A450 (Mouse Id1: Histidine [6]) of the same molecule?
Answer: 2 A450

Question: And the A450 (Human Id3: Histidine [7])?
Answer: 0.047 A450

Question: What about the A450 [8] of the same molecule?
Answer: 0.051 A450

Question: What about the A450 (Human Id2: Histidine [9]) of the same molecule?
Answer: 0.115 A450

Question: What about the A450 (Mouse Id1: Histidine [10]) of the same molecule?
Answer: 3.27 A450

Question: What about the A450 (Human Id3: Histidine [11]) of the same molecule?
Answer: 0.113 A450

Question: What about the A450 [12] of the same molecule?
Answer: 0.194 A450

Question: And the A450 (Human Id2: Histidine [13])?
Answer: 0.053 A450

Question: What about the A450 (Mouse Id1: Histidine [14]) of the same molecule?
Answer: 2.88 A450

Question: What about the A450 (Human Id3: Histidine [15]) of the same molecule?
Answer: 0.063 A450

Question: What about the Cross-reactivity (%) [16] of the same molecule?
Answer: < 1%

Question: What about the A450 [17] of the same molecule?
Answer: 0.153 A450

Question: What about the A450 [18] of the same molecule?
Answer: 0.113 A450
